B1: GST-Iab (GST fusion of amino acids 1-343 of mouse IP3R1) (receptor)
chain: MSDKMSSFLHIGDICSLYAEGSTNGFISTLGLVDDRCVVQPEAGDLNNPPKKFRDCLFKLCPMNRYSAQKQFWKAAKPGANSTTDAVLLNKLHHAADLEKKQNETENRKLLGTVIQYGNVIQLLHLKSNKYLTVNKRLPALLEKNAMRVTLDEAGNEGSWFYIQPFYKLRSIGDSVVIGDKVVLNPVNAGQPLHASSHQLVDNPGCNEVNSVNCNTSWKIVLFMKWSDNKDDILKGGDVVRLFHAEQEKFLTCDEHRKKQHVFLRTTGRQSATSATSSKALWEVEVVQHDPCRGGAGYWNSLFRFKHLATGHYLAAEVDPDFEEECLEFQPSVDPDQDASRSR
notes: Expressed in Escherichia coli; not shown: glutathione S-transferase (GST) tag of vector pGEX-KG
B2: IRBIT (IP3R-binding protein released with inositol 1,4,5-trisphosphate) in the high salt extract of mouse cerebellar crude microsome (other)
chain: SMPDAMPLPGVGEELKQAKEIEDAEKYSFMATVTKAPKKQIQFADDMQEFTKFPTKTGRRSLSRSISQSSTDSYSSAASYTDSSDDEVSPREKQQTNSKGSSNFCVKNIKQAEFGRREIEIAEQDMSALISLRKRAQGEKPLAGAKIVGCTHITAQTAVLIETLCALGAQCRWSACNIYSTQNEVAAALAEAGVAVFAWKGESEDDFWWCIDRCVNMDGWQANMILDDGGDLTHWVYKKYPNVFKKIRGIVEESVTGVHRLYQLSKAGKLCVPAMNVNDSVTKQKFDNLYCCRESILDGLKRTTDVMFGGKQVVVCGYGEVGKGCCAALKALGAIVYITEIDPICALQACMDGFRVVKLNEVIRQVDVVITCTGNKNVVTREHLDRMKNSCIVCNMGHSNTEIDVTSLRTPELTWERVRSQVDHVIWPDGKRVVLLAEGRLLNLSCSTVPTFVLSITATTQALALIELYNAPEGRYKQDVYLLPKKMDEYVASLHLPSFDAHLTELTDDQAKYLGLNKNGPFKPNYYRY
notes: Endogenous protein extracted with 500 mM NaCl from crude microsome of mouse cerebellum, not purified; sites not determined; also called IRBIT in the high salt extract
B3: GST-Ia (GST fusion of amino acids 1-225 of mouse IP3R1) (receptor)
chain: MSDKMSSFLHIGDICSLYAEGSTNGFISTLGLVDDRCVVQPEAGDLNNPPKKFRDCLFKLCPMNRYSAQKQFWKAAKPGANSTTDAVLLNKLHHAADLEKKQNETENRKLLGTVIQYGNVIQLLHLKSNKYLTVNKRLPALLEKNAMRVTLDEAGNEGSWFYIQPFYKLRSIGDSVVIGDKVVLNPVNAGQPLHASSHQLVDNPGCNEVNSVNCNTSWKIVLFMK
notes: as for B1
B4: GST-IV (GST fusion of amino acids 1553-1943 of mouse IP3R1) (receptor)
chain: DLDSQVNNLFLKSHNIVQKTALNWRLSARNAARRDSVLAASRDYRNIIERLQDIVSALEDRLRPLVQAELSVLVDVLHRPELLFPENTDARRKCESGGFICKLIKHTKQLLEENEEKLCIKVLQTLREMMTKDRGYGEKQISIDESENAELPQAPEAENSTEQELEPSPPLRQLEDHKRGEALRQILVNRYYGNIRPSGRRESLTSFGNGPLSPGGPSKPGGGGGGPGSSSTSRGEMSLAEVQCHLDKEGASNLVIDLIMNASSDRVFHESILLAIALLEGGNTTIQHSFFCRLTEDKKSEKFFKVFYDRMKVAQQEIKATVTVNTSDLGNKKKDDEVDRDAPSRKKAKEPTTQITEEVRDQLLEASAATRKAFTTFRREADPDDHYQSGE
notes: as for B1
B5: K508A (site-directed mutant of GST-IbIIa, lysine 508 of IP3R1 substituted with alanine) (receptor)
chain: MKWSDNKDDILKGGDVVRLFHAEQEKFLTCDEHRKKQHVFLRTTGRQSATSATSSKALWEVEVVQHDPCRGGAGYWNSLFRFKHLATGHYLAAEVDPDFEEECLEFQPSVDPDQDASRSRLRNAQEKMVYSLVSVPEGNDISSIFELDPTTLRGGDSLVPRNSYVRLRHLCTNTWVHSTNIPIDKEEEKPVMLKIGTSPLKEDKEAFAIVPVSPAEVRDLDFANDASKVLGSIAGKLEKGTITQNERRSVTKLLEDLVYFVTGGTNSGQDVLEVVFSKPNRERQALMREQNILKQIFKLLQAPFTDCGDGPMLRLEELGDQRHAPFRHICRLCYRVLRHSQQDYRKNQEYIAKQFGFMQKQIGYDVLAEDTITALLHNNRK
notes: not shown: The GST carrier at the N end and its vector linker

Legend:
[1] = biological target: B2; assay: GST pulldown from high salt extract, Western blot with anti-IRBIT antibody
Description: (§1) FIG. 9A is the schematic representation of the structure of mouse IP₃R1 and the recombinant GST fusion proteins used in this study. The IP₃ binding core region is indicated with a gray box. Putative membrane-spanning regions are indicated with solid vertical bars. Roman numbers I to V indicate the domain structure of IP₃R1 determined by the limited trypsin digestion (51). Numbers above the bars represent corresponding amino acid residue numbers. […] The high salt extract of crude microsome obtained from mouse cerebella was incubated with GST fusion proteins shown in (A). Bound proteins were pulled down with glutathione-Sepharose, eluted with glutathione, and analyzed by Western blotting using anti-IRBIT antibody. […] Bound proteins were pulled down with glutathione-Sepharose, eluted with glutathione, and then analyzed by Western blotting using anti-IRBIT antibody (upper panel). GST fusion proteins pulled down with glutathione-Sepharose were stained with Coomassie Brilliant Blue (lower panel).
(§2) For the determination of the IRBIT binding region and the critical amino acid residue of IP₃R1, the diluted high salt extract was subjected to pulldown assay as described above with 100 pmol of GST, GST-EL, GST-Ia, GST-Iab, GST-IbIIa, GST-IIab, GST-IIbIIIa, GST-IIIab, GST-IV, GST-IV-Va, K508A or R441Q, and analyzed by Western blotting with anti-IRBIT antibody.

[2] = biological target: T1, GST-IIab (GST fusion of amino acids 341-923 of mouse IP3R1) (mouse, UniProt P11881 341-923); assay: as above
T1 construct: Expressed in Escherichia coli; not shown: glutathione S-transferase (GST) tag of vector pGEX-KG
Description: as §1, §2

[3] = biological target: GST-EL (GST-IP3R1 (1-2217), GST fusion of the N-terminal 2217 amino acid residues of mouse IP3R1) (mouse, UniProt P11881 1-2217); assay: cell-based or functional assay
[4] = biological target: T2, GST-IV-Va (GST fusion of amino acids 1593-2217 of mouse IP3R1) (mouse, UniProt P11881 1593-2217); assay: GST pulldown from the high salt extract, Western blot with anti-IRBIT antibody
T2 construct: Expressed in Escherichia coli; not shown: glutathione S-transferase (GST) tag of vector pGEX-4T-1
Description: as §1, §2

[5] = biological target: T3, GST-IIIab (GST fusion of amino acids 916-1581 of mouse IP3R1) (mouse, UniProt P11881 916-1581); assay: as above
T3 construct: Expressed in Escherichia coli; not shown: glutathione S-transferase (GST) tag of vector pGEX-KG
Description: as §1, §2

[6] = biological target: T4, GST-IIbIIIa (GST fusion of amino acids 600-1248 of mouse IP3R1) (mouse, UniProt P11881 600-1248); assay: as above
T4 construct: Expressed in Escherichia coli; not shown: glutathione S-transferase (GST) tag of vector pGEX-KG
Description: as §1, §2

[7] = biological target: B2; assay: as above
Description: as §1, §2

T2 sequence (P11881 1593-2217): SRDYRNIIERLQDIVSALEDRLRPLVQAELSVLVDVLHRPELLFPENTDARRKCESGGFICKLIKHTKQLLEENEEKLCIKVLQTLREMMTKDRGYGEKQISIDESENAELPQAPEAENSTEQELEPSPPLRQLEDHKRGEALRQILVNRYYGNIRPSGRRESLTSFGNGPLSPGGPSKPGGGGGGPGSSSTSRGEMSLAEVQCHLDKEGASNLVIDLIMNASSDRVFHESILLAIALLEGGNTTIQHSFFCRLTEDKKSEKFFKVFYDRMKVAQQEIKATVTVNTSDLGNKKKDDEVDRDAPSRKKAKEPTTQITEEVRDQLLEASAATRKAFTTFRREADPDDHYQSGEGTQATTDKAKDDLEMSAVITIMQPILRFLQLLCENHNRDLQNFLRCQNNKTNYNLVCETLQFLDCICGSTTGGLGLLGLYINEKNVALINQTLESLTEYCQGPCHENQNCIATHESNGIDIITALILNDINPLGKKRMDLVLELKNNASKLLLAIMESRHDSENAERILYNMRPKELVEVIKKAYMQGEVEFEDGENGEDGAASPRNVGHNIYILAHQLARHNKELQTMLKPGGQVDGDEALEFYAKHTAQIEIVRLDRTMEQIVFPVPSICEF
T3 sequence (P11881 916-1581 N1264K): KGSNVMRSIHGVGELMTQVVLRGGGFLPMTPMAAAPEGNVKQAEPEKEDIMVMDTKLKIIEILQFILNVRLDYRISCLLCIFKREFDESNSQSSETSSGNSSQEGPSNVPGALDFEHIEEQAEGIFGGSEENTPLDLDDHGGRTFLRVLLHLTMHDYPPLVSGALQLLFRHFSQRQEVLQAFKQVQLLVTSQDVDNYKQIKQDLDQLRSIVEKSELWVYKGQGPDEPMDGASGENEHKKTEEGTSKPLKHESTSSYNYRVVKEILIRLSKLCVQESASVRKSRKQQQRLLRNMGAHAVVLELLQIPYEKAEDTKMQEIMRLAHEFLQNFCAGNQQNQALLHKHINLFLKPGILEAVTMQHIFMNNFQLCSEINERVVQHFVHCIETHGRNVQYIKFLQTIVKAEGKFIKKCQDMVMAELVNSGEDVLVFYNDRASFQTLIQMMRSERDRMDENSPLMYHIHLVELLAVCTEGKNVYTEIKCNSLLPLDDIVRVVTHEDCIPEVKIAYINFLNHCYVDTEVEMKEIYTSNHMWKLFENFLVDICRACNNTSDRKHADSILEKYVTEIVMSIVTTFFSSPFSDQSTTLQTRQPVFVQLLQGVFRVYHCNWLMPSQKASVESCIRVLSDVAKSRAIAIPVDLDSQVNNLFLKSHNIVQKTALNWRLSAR
T4 sequence (P11881 600-1248): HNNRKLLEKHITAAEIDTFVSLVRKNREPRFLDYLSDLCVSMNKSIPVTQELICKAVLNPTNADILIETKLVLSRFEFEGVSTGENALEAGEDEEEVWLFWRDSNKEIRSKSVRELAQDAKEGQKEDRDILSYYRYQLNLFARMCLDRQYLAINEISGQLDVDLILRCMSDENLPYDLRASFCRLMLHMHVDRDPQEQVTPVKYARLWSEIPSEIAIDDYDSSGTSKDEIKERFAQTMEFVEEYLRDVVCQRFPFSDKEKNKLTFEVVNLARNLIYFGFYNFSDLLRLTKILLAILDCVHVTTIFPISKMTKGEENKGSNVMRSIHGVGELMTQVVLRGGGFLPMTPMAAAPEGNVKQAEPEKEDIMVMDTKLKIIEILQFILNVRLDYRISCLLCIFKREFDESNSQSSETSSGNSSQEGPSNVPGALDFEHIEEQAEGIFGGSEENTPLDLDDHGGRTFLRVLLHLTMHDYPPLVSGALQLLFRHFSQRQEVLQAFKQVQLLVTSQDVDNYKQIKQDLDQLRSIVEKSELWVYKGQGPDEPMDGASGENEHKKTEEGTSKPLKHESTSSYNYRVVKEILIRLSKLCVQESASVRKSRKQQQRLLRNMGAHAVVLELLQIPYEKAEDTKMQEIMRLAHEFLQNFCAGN
T1 sequence (P11881 341-923): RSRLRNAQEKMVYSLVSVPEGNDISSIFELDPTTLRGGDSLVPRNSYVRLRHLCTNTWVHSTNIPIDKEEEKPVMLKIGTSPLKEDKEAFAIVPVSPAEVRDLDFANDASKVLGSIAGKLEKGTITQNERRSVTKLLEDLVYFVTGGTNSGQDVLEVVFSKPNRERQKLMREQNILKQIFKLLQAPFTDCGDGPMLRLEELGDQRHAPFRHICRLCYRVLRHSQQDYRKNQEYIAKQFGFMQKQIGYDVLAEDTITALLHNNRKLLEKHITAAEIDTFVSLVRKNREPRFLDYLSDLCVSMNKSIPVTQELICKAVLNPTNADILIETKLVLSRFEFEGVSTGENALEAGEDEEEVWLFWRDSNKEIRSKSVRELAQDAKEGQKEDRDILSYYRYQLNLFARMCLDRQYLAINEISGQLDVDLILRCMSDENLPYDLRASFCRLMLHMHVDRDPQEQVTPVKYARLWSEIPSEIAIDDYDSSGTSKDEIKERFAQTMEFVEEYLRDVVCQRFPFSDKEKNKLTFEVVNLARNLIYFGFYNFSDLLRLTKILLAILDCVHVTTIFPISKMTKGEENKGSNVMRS

B1: no binding (tested: 100 pmol of GST fusion protein) [1].

In the case of B2, the binding result [2] is reported as “no binding (tested: 100 pmol of GST fusion protein)”, the “EC50 (IP3 concentration required for half (50%)-maximal dissociation of IRBIT from GST-EL)” value [3] is reported as ~0.5 µM and the binding result [4] is reported as “no binding (tested: 100 pmol GST fusion protein)”. B2: no binding (tested: 100 pmol GST fusion protein) [5]; no binding (tested: 100 pmol GST fusion protein) [6].

B3: no binding (tested: 100 pmol GST fusion protein) [7].

B4: no binding (tested: 100 pmol GST fusion protein) [7].

B5: no binding (tested: 100 pmol of GST fusion protein) [1].

— US20050181450A1 (published 2005)
